Results published in the Human Domainome abundance scans (Beltran et al. 2025).
± gives the uncertainty stated by the source.

B1: Peripheral plasma membrane protein CASK, residues 488 to 569; numbered along this chain, O14936 (parent)
chain: VRLVQFQKNTDEPMGITLKMNELNHCIVARIMHGGMIHRQGTLHVGDEIREINGISVANQTVEQLQKMLREMRGSITFKIVP

Variants of: B1
Test: abundance fitness (aPCA) (normalised: wild type 0, dead -1); higher = more abundant; growth selection in yeast, the domain comes from the species named
Details: Homo sapiens

Abundance fitness, by site and new letter:
H38: G -0.091 ± 0.02 | Q 0.024 ± 0.034 | T -0.313 ± 0.04 | L -0.348 ± 0.03 | A -0.028 ± 0.024 | K -0.138 ± 0.037 | N -0.138 ± 0.055 | I -0.295 ± 0.066 | F -0.057 ± 0.045 | D -0.043 ± 0.035 | R -0.209 ± 0.023 | Y -0.076 ± 0.049 | E 0.048 ± 0.027 | S -0.052 ± 0.028 | C -0.129 ± 0.036 | P -0.103 ± 0.034 | W -0.029 ± 0.026
M36: V 0 ± 0.036 | W 0.068 ± 0.035 | Y 0.066 ± 0.072 | T 0.006 ± 0.05
L43: A -0.722 ± 0.04 | Y -0.733 ± 0.11 | T -0.76 ± 0.06 | H -0.97 ± 0.16 | D -1.04 ± 0.11 | K -0.99 ± 0.09 | F 0.052 ± 0.055 | Q -1.01 ± 0.1 | R -0.853 ± 0.036 | E -0.774 ± 0.049 | N -0.906 ± 0.15 | M -0.021 ± 0.03 | P -0.658 ± 0.06 | C -0.308 ± 0.038 | S -0.755 ± 0.051 | V -0.021 ± 0.024 | G -0.985 ± 0.043 | W -0.662 ± 0.041
I37: H -0.294 ± 0.05 | Q -0.43 ± 0.045 | E -0.378 ± 0.032 | T -0.129 ± 0.029 | A 0.019 ± 0.025 | M -0.021 ± 0.03 | N -0.391 ± 0.059 | Y -0.38 ± 0.056 | G -0.276 ± 0.023 | C -0.024 ± 0.034 | L -0.103 ± 0.025 | P -0.42 ± 0.044 | S -0.217 ± 0.028 | W -0.333 ± 0.03 | F -0.092 ± 0.048 | R -0.531 ± 0.026
T42: K 0.025 ± 0.031 | F -0.021 ± 0.037 | R -0.038 ± 0.02 | Q 0.003 ± 0.031 | M 0.01 ± 0.032 | N -0.039 ± 0.046 | L -0.003 ± 0.024 | E 0.012 ± 0.026 | W -0.246 ± 0.027 | P -0.336 ± 0.033 | Y -0.076 ± 0.037 | G 0.005 ± 0.02 | H -0.065 ± 0.045 | V -0.019 ± 0.023 | S 0.005 ± 0.024 | D -0.007 ± 0.032 | C -0.025 ± 0.031 | A 0.005 ± 0.024
H44: P -0.917 ± 0.063 | Q -0.006 ± 0.03 | E 0.02 ± 0.035 | A -0.006 ± 0.023 | L -0.142 ± 0.025 | I -0.188 ± 0.049 | F -0.125 ± 0.04 | W -0.281 ± 0.03 | N -0.029 ± 0.037 | T -0.039 ± 0.029 | S -0.007 ± 0.023 | Y -0.075 ± 0.051 | C -0.012 ± 0.033 | K 0.007 ± 0.032 | D -0.021 ± 0.031 | M -0.024 ± 0.03
V45: M -0.025 ± 0.074 | A -0.045 ± 0.043 | Q -0.134 ± 0.061 | S -0.232 ± 0.051 | W -0.464 ± 0.12 | P -0.059 ± 0.072 | G -0.548 ± 0.054 | E -0.054 ± 0.046 | F -0.457 ± 0.14 | D -0.178 ± 0.079 | R -0.169 ± 0.043 | N -0.292 ± 0.12 | Y -0.665 ± 0.35 | L -0.061 ± 0.05 | C -0.128 ± 0.079 | K -0.207 ± 0.083 | I -0.046 ± 0.047 | H 0.016 ± 0.18 | T 0.022 ± 0.075
G46: L -0.638 ± 0.05 | A -0.624 ± 0.045 | E -0.293 ± 0.042 | C -0.721 ± 0.081 | I -1.01 ± 0.24 | K -0.706 ± 0.077 | F -0.75 ± 0.17 | H -0.471 ± 0.13 | D -0.22 ± 0.04
G41: I -0.55 ± 0.069 | D -0.065 ± 0.033 | M -0.233 ± 0.036 | E -0.1 ± 0.028 | Q -0.113 ± 0.034 | R -0.127 ± 0.021 | W -0.829 ± 0.048 | A -0.083 ± 0.024 | S -0.098 ± 0.025 | C -0.137 ± 0.031 | Y -0.639 ± 0.08 | K -0.1 ± 0.032 | V -0.288 ± 0.025 | F -0.618 ± 0.061 | N -0.072 ± 0.039 | L -0.424 ± 0.029 | H -0.07 ± 0.043 | T -0.033 ± 0.03 | P -0.541 ± 0.047
Q40: A -0.016 ± 0.02 | T -0.067 ± 0.026 | N -0.007 ± 0.041 | H -0.096 ± 0.041 | P -0.552 ± 0.04 | C -0.072 ± 0.029 | S -0.043 ± 0.023 | M -0.055 ± 0.026 | F -0.103 ± 0.041 | E 0.018 ± 0.024 | V -0.065 ± 0.021 | L -0.06 ± 0.022 | G -0.097 ± 0.023 | I -0.05 ± 0.038
R39: E -0.052 ± 0.026 | G -0.136 ± 0.019 | H -0.118 ± 0.043 | M -0.135 ± 0.033 | D -0.096 ± 0.034 | C -0.156 ± 0.055 | P -0.469 ± 0.04 | Y -0.35 ± 0.048 | N 0.04 ± 0.037 | Q -0.024 ± 0.031 | F -0.34 ± 0.051 | A -0.035 ± 0.022 | L -0.138 ± 0.026 | V -0.197 ± 0.022 | T -0.07 ± 0.03 | I -0.297 ± 0.04 | S -0.047 ± 0.026
